Results from patent EP0920630B1.

Biological target: PrPBPs (prion protein binding proteins) on the surface of G8 cells (mouse muscle cell line)
Assay: Scatchard analysis, bound AP activity on G8 cells

PrP-AP fusion protein (murine PrP fused to secreted human placental heat-stable alkaline phosphatase) (from UniProt P04925 23-229; P05187 23-511)
Kd: 1.48 nM
PrP-AP binding sites (Bmax) (binding sites): 100000
